Laboratory results: paper PMC6050342, “Molecular identification and characterization of rhodaneses from the insect herbivore Pieris rapae” (Scientific Reports, 2018)

Substrate: O=S(O)(O)=S
Experiment: purified protein
Format: biochemical, Pieris rapae
Details: 50 mM KCN, Tris-HCl pH 8.5, 30 °C

B1: PrTST2 (Pieris rapae) (protein)
chain: MGNSNSNSTMVDPVRFVSYEDMLKVIHEPEKVIIDVRNPDEIESTGKIPSSINIPLNTVSDTLASMPDDEFLKQYQRPKPSASDELIFYCKSGRRSQEALDKALKLGFSNSKSYLGSWEDWSSKQK
notes: active-site Cys-90
  Km: 840 ± 270 µM
  Vmax: 14.2 µmol/min/mg
